Measured values reported in the supplement of paper PMC9112550, “Optimization of the antimicrobial peptide Bac7 by deep mutational scanning” (BMC Biology, 2022).

Tested on: Escherichia coli TOP10
Assay: shrunken log2 fold change of peptide-encoding DNA abundance (4.5 h post-induction vs induction); higher = less antimicrobial activity (less host growth inhibition)
Settings: time post-induction: 4.5 h; library: site-saturation at positions 5, 18, 19, 20
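Also: peptides expressed intracellularly from a pBAD plasmid library in pooled LB shake-flask culture, induced with 0.3% L-arabinose, DNA abundance read by NGS, three biological replicates, DESeq2 with apeglm shrinkage.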

Sequence	shrunken log2 fold change
RRIRIRPPRLPRPRPRPNYSPRP	-0.937
RRIRFRPPRLPRPRPRPACVPRP	-0.0826
RRIRDRPPRLPRPRPRPQWFPRP	0.0117
RRIRIRPPRLPRPRPRPGYEPRP	-0.237
RRIRLRPPRLPRPRPRPHWDPRP	0.176
RRIRQRPPRLPRPRPRPVICPRP	-0.0945
RRIRWRPPRLPRPRPRPHMGPRP	0.0771
RRIRLRPPRLPRPRPRPNWLPRP	0.0723
RRIRIRPPRLPRPRPRPKQDPRP	-0.354
RRIRSRPPRLPRPRPRPHMRPRP	-0.0431
RRIRMRPPRLPRPRPRPLPIPRP	-0.0881
RRIRQRPPRLPRPRPRPFDCPRP	-0.408
RRIRYRPPRLPRPRPRPVEMPRP	-1.52
RRIRQRPPRLPRPRPRPMKGPRP	0.0391
RRIRMRPPRLPRPRPRPHHTPRP	-0.263
RRIRERPPRLPRPRPRPLDQPRP	0.09
RRIRNRPPRLPRPRPRPVAWPRP	-0.01
RRIRSRPPRLPRPRPRPARTPRP	0.293
RRIRWRPPRLPRPRPRPPLFPRP	0.42
RRIRPRPPRLPRPRPRPHYCPRP	-0.997
RRIRYRPPRLPRPRPRPNSRPRP	-0.156
RRIRWRPPRLPRPRPRPHYIPRP	-0.468
RRIRMRPPRLPRPRPRPNLPPRP	-0.0556
RRIRPRPPRLPRPRPRPARQPRP	0.253
RRIRDRPPRLPRPRPRPMCIPRP	-0.121

Sequence	shrunken log2 fold change
RRIRSRPPRLPRPRPRPHRRPRP	0.0441
RRIRRRPPRLPRPRPRPLTGPRP	0.0456
RRIRQRPPRLPRPRPRPPDEPRP	0.0836
RRIRLRPPRLPRPRPRPKHHPRP	-0.296
RRIRSRPPRLPRPRPRPWGLPRP	0.0137
RRIRGRPPRLPRPRPRPYKYPRP	-0.346
RRIRVRPPRLPRPRPRPAGWPRP	0.689
RRIRNRPPRLPRPRPRPQVCPRP	0.0261
RRIRIRPPRLPRPRPRPHHDPRP	-0.515
RRIRNRPPRLPRPRPRPFNKPRP	-0.72
RRIRTRPPRLPRPRPRPKLIPRP	-0.0765
RRIRIRPPRLPRPRPRPGFTPRP	-0.329
RRIRGRPPRLPRPRPRPGKMPRP	0.224
RRIRHRPPRLPRPRPRPHCSPRP	-0.124
RRIRDRPPRLPRPRPRPGVCPRP	0.358
RRIRGRPPRLPRPRPRPLDLPRP	0.717
RRIRCRPPRLPRPRPRPSCSPRP	-0.482
RRIRFRPPRLPRPRPRPILMPRP	-0.0682
RRIRVRPPRLPRPRPRPVEYPRP	-1.63
RRIRDRPPRLPRPRPRPTSCPRP	0.037
RRIRSRPPRLPRPRPRPQPNPRP	-0.00561
RRIRLRPPRLPRPRPRPAIEPRP	0.0744
RRIRERPPRLPRPRPRPIWDPRP	-0.254
RRIRDRPPRLPRPRPRPQRLPRP	0.116
RRIRMRPPRLPRPRPRPYRIPRP	-0.0176

Sequence	shrunken log2 fold change
RRIRQRPPRLPRPRPRPLEIPRP	-0.106
RRIRTRPPRLPRPRPRPKGFPRP	0.0975
RRIRCRPPRLPRPRPRPFKWPRP	-0.115
RRIRKRPPRLPRPRPRPTMDPRP	0.0288
RRIRGRPPRLPRPRPRPQMTPRP	2.33
RRIRCRPPRLPRPRPRPSVFPRP	-0.614
RRIRWRPPRLPRPRPRPPEVPRP	0.334
RRIRLRPPRLPRPRPRPMQNPRP	0.141
RRIRNRPPRLPRPRPRPPQKPRP	0.544
RRIRQRPPRLPRPRPRPFNVPRP	-0.375
RRIRNRPPRLPRPRPRPFQMPRP	-0.673
RRIRHRPPRLPRPRPRPRIDPRP	-0.511
RRIRWRPPRLPRPRPRPANAPRP	0.711
RRIRNRPPRLPRPRPRPVWSPRP	0.0637
RRIRMRPPRLPRPRPRPLAKPRP	0.791
RRIRHRPPRLPRPRPRPIWKPRP	-0.0276
RRIRDRPPRLPRPRPRPPYHPRP	-0.302
RRIRMRPPRLPRPRPRPDVPPRP	0.323
RRIRGRPPRLPRPRPRPMAYPRP	0.0863
RRIRDRPPRLPRPRPRPKDNPRP	-0.116
RRIRVRPPRLPRPRPRPENSPRP	-0.522
RRIRYRPPRLPRPRPRPLCMPRP	-0.795
RRIRWRPPRLPRPRPRPCPHPRP	-0.00679
RRIRKRPPRLPRPRPRPTACPRP	0.108
RRIRCRPPRLPRPRPRPCGKPRP	-0.0972

Sequence	shrunken log2 fold change
RRIRRRPPRLPRPRPRPSPRPRP	1.03
RRIRQRPPRLPRPRPRPATLPRP	-0.0197
RRIRNRPPRLPRPRPRPFAKPRP	0.637
RRIRPRPPRLPRPRPRPQIWPRP	0.0101
RRIRERPPRLPRPRPRPVHMPRP	-0.0419
RRIRRRPPRLPRPRPRPQSTPRP	-0.095
RRIRQRPPRLPRPRPRPQCLPRP	-0.122
RRIRRRPPRLPRPRPRPYNWPRP	-0.734
RRIRKRPPRLPRPRPRPGFFPRP	0.786
RRIRCRPPRLPRPRPRPEFMPRP	0.118
RRIRERPPRLPRPRPRPERVPRP	-0.0309
RRIRFRPPRLPRPRPRPVPHPRP	-0.342
RRIRHRPPRLPRPRPRPLVCPRP	-9.35e-05
RRIRWRPPRLPRPRPRPLWMPRP	0.151
RRIRWRPPRLPRPRPRPGMRPRP	0.976
RRIRNRPPRLPRPRPRPRPPPRP	1.26
RRIRERPPRLPRPRPRPMNRPRP	-0.401
RRIRKRPPRLPRPRPRPIRKPRP	0.092
RRIRMRPPRLPRPRPRPVVDPRP	0.0138
RRIRPRPPRLPRPRPRPIVIPRP	-0.328
RRIRGRPPRLPRPRPRPCWIPRP	-0.0658
RRIRTRPPRLPRPRPRPERCPRP	0.0057
RRIRKRPPRLPRPRPRPCIMPRP	1.3
RRIRPRPPRLPRPRPRPHACPRP	0.00839
RRIRVRPPRLPRPRPRPWRCPRP	-0.0179

Sequence	shrunken log2 fold change
RRIRVRPPRLPRPRPRPWLGPRP	-0.0696
RRIRERPPRLPRPRPRPRWMPRP	0.0378
RRIRERPPRLPRPRPRPFYEPRP	-0.498
RRIRGRPPRLPRPRPRPDVKPRP	0.356
RRIRARPPRLPRPRPRPADKPRP	0.197
RRIRARPPRLPRPRPRPMMHPRP	0.184
RRIRSRPPRLPRPRPRPSPTPRP	-0.0425
RRIRNRPPRLPRPRPRPMHMPRP	-0.00926
RRIRVRPPRLPRPRPRPACQPRP	0.168
RRIRWRPPRLPRPRPRPTSPPRP	0.217
RRIRMRPPRLPRPRPRPIYTPRP	-0.257
RRIRIRPPRLPRPRPRPWYNPRP	-0.343
RRIRIRPPRLPRPRPRPYQTPRP	-0.0792
RRIRRRPPRLPRPRPRPMANPRP	0.136
RRIRRRPPRLPRPRPRPWGAPRP	0.483
RRIRIRPPRLPRPRPRPEMYPRP	-0.174
RRIRFRPPRLPRPRPRPMIGPRP	0.0266
RRIRPRPPRLPRPRPRPVFEPRP	0.222
RRIRSRPPRLPRPRPRPQYYPRP	-0.29
RRIRPRPPRLPRPRPRPVTRPRP	-0.0129
RRIRHRPPRLPRPRPRPQHGPRP	0.00949
RRIRQRPPRLPRPRPRPFWQPRP	0.213
RRIRLRPPRLPRPRPRPTIGPRP	-0.192
RRIRMRPPRLPRPRPRPSCDPRP	0.444
RRIRNRPPRLPRPRPRPYYGPRP	-0.105

Sequence	shrunken log2 fold change
RRIRFRPPRLPRPRPRPRLQPRP	0.221
RRIRIRPPRLPRPRPRPNYEPRP	-0.396
RRIRHRPPRLPRPRPRPEDCPRP	-0.0178
RRIRCRPPRLPRPRPRPYMCPRP	-0.233
RRIRKRPPRLPRPRPRPRVPPRP	0.0172
RRIRPRPPRLPRPRPRPDSVPRP	0.195
RRIRIRPPRLPRPRPRPVRMPRP	0.109
RRIRNRPPRLPRPRPRPEESPRP	0.013
RRIRRRPPRLPRPRPRPYSKPRP	-0.129
RRIRERPPRLPRPRPRPFPMPRP	-0.423
RRIRVRPPRLPRPRPRPRDLPRP	0.0448
RRIRGRPPRLPRPRPRPMKIPRP	0.533
RRIRARPPRLPRPRPRPYSPPRP	-0.409
RRIRPRPPRLPRPRPRPAHVPRP	0.0491
RRIRLRPPRLPRPRPRPEVMPRP	0.0474
RRIRGRPPRLPRPRPRPDHHPRP	-0.0187
RRIRSRPPRLPRPRPRPCQYPRP	0.0376
RRIRVRPPRLPRPRPRPCCIPRP	-0.0914
RRIRQRPPRLPRPRPRPFWVPRP	0.176
RRIRGRPPRLPRPRPRPRDWPRP	1.25
RRIRFRPPRLPRPRPRPIPQPRP	0.132
RRIRVRPPRLPRPRPRPELAPRP	0.659
RRIRMRPPRLPRPRPRPGTWPRP	0.043
RRIRERPPRLPRPRPRPYECPRP	-0.0425
RRIRYRPPRLPRPRPRPPNYPRP	-0.523
